The data set deals with the molecule itself. The experiment in a line: SEC; HiLoad 16/600 Superdex 200, Tris buffer (50 mM, pH 8.0, 150 mM NaCl), calibrated with proteins of known mass; final purification step. A general note: In gel filtration, larger molecules generally elute earlier.

B1: Human glutathione transferase M1-1 (hGST M1-1) (enzyme, UniProt P09488 1-218, looked up)
chain: MPMILGYWDIRGLAHAIRLLLEYTDSSYEEKKYTMGDAPDYDRSQWLNEKFKLGLDFPNLPYLIDGAHKITQSNAILCYIARKHNLCGETEEEKIRVDILENQTMDNHMQLGMICYNPEFEKLKPKYLEELPEKLKLYSEFLGKRPWFAGNKITFVDFLVYDVLDLHRIFEPKCLDAFPNLKDFISRFEGLEKISAYMKSSRFLPRPVFSKMAVWGNK
notes: Human glutathione transferase M1 (mu class), ORF of GenBank X08020.1; purified without tags; Homodimer; In the crystal it carries the small-molecule adduct GS-10-NO2-OA in the active site; source: E. coli BL21(DE3), pET22b, purified (GSH-Sepharose, SEC)
Usually stoichiometry N stands for the number of molecules, sites or subunits per partner or assembly. As for B1, the “stoichiometry N” value was found to be 2.

B2: Human glutathione transferase A4-4 (hGST A4-4) (enzyme, UniProt O15217 1-222, looked up)
chain: MAARPKLHYPNGRGRMESVRWVLAAAGVEFDEEFLETKEQLYKLQDGNHLLFQQVPMVEIDGMKLVQTRSILHYIADKHNLFGKNLKERTLIDMYVEGTLDLLELLIMHPFLKPDDQQKEVVNMAQKAIIRYFPVFEKILRGHGQSFLVGNQLSLADVILLQTILALEEKIPNILSAFPFLQEYTVKLSNIPTIKRFLEPGSKKKPPPDEIYVRTVYNIFRP
notes: Human glutathione transferase A4 (alpha class), ORF of GenBank Y13047.1; Homodimer; Expressed as a C-terminal fusion to His-tagged Trx1 with a TEV site in between; the fusion partner was cut off; the printed mass (25,761 Da) may include such a remnant (surmise); source: E. coli BL21(DE3), pET-Trx1b, purified (GSH-Sepharose, TEV cleavage, HisTrap flow through, SEC); not shown: His tag, N-terminal, …
With B2, the “stoichiometry N” value was determined as 2.

These data come from PMC11999266, “Human glutathione transferases catalyze the reaction between glutathione and nitrooleic acid” (The Journal of Biological Chemistry, 2025).
